Target: murine GM-CSF receptor (on FDC-P1 cells) (murine) (UniProt Q00941)
Assay: cell-based or functional assay

Chain of UniProt Q00941 (Q00941 30-388, chain 1 of 2): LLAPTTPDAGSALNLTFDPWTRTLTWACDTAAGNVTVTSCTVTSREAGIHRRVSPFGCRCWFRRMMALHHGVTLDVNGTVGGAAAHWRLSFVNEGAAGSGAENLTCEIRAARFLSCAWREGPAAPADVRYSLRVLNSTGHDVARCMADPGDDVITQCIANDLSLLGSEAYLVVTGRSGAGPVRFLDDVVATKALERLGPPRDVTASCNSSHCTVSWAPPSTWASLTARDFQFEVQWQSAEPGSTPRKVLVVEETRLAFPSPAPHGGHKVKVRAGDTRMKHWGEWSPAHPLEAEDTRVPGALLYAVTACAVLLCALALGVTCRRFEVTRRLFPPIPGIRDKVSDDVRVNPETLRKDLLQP
Chain of UniProt Q00941 (P26955 23-896, chain 2 of 2, further chain): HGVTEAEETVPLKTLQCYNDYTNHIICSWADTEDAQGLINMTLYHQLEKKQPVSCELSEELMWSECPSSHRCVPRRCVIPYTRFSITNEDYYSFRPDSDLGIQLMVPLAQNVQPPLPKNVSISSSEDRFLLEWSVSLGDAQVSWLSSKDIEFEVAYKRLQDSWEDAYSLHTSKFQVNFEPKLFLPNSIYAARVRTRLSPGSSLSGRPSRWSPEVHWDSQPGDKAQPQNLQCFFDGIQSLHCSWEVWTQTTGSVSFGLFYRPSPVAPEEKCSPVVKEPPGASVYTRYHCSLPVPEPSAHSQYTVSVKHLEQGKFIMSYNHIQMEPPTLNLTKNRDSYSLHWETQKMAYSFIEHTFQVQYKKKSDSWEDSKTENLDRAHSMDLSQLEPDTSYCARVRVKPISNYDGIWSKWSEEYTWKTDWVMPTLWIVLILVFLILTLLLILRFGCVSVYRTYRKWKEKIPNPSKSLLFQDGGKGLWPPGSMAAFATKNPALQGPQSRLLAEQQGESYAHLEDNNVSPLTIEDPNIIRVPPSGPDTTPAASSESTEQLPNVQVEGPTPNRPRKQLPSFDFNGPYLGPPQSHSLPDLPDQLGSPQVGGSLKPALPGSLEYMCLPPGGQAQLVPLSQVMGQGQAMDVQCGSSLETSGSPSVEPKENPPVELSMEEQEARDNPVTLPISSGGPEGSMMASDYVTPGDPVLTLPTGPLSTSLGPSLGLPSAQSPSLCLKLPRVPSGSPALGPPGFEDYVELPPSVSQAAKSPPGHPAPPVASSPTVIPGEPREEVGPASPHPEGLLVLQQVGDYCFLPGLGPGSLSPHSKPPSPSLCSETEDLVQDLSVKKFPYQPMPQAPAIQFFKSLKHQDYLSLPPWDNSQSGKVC

Substance “GPI-GM-CSF (murine GM-CSF fused to the S. cerevisiae Gas1 GPI modification signal sequence, expressed in yeast clone SC-GM-GPI) (from UniProt P01587 18-141; P22146 474-528) (other; the values are: proliferation increase vs soluble GM-CSF)” has a proliferation of FDC-P1 cells (Biotrak BrdU cell proliferation ELISA), 10 ng GM-CSF equivalent per well of 25%.

Source: patent US20040180389A1
